From patent US20110262929A1 (FORERUNNER PHARMA RESEARCH, published 2011) come the findings set out here.

The target in one assay is T1, GST_HS6ST2_C2 (human, UniProt Q96MM7 525-605).
T1 construct: Expressed in E. coli BL21 (DE3); whole cell lysate blotted after SDS-PAGE; also called GST fusion of amino acids 379-459 of HS6ST2_N-short; not shown: N-terminal glutathione S-transferase (GST) of vector pGEX-6P-1, with the vector's linker
T1 sequence: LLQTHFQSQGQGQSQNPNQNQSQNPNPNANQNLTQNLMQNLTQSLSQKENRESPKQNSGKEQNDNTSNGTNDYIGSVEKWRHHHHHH
Nature of the assay: Western blot of E. coli whole cell lysate, antibody 10 µg/mL. Here is the method: (§1) GST_HS6ST2_N, GST_HS6ST2_mid, GST_HS6ST2_C, GST_HS6ST2_C1 and GST_HS6ST2_C2 were expressed in BL21 (DE3) Competent Cells (Takara Bio), and the whole cell lysates were resolved by SDS-PAGE electrophoresis and then transferred to PVDF membranes (Immobilon-P, Millipore) and Western blotted with the anti-HS6ST2 antibodies. The anti-HS6ST2 antibodies were used at 10 μg/mL, while the secondary antibody (HRP-anti mIgG, GE Healthcare) was used as a 3000-fold dilution, and blots were detected with ECL Western Blotting Detection Reagents (GE Healthcare). As a result, the anti-HS6ST2 antibodies A1, A10, B5, B6 and C8 bound to GST_HS6ST2_C2, A6 bound to GST_HS6ST2_C1, and C10 bound to GST_HS6ST2_N.
For orientation: A western blot detects proteins with antibodies after separation by electrophoresis.

Assay [1] concerns the target T2, C-terminal V5 tagged HS6ST2_N-short (HS6ST2_N-short_ctV5), expressed in CHO DG44 cells (human, UniProt Q96MM7 147-605).
T2 construct: also called Q96MM7-2
T2 sequence: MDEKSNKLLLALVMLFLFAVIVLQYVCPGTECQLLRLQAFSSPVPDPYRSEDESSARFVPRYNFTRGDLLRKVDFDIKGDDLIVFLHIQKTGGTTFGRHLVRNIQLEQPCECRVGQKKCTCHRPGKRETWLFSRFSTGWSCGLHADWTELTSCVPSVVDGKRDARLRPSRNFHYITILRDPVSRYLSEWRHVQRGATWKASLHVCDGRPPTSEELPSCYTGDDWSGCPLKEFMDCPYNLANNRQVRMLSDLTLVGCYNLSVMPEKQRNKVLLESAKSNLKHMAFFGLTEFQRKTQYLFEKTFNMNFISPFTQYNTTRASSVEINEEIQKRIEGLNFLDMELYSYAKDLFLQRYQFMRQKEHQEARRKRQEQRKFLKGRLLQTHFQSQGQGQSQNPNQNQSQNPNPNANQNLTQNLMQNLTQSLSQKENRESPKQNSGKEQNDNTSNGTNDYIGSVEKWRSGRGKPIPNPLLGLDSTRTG
Nature of the assay: flow cytometry on HS6ST2_N-short_ctV5_CHO cells, antibody 2 µg/mL. As to the method:
(§2) Binding of the anti-HS6ST2 antibodies prepared in Example 2 to mHS6ST2 was evaluated by flow cytometry. The cells used were mHS6ST2_ctV5_CHO, HS6ST2_N-short_ctV5_CHO as a positive control, and the CHO DG44 cell line as a negative control.
(§3) Each anti-HS6ST2 antibody or mouse IgG1 (mIgG1, BD Biosciences Pharmingen) as a negative control was added to a final concentration of 2 μg/mL into 96-well U-bottom plates (Becton Dickinson) containing 5×10⁴ cells suspended in PBS (FACS buffer) supplemented with 0.5% bovine serum albumin and 0.1% NaN₃. After reaction on ice for 1 hour, the cells were washed with FACS buffer. Then, an FITC-labeled anti-mouse antibody (Goat F(ab′)₂ Fragment Anti-mouse IgG (H+L)-FITC, Beckman Coulter) was added as a secondary antibody, and the mixture was reacted on ice for 1 hour. The cells were washed with FACS buffer, and then suspended in FACS buffer containing 10 μg/mL propidium iodide (PI) (Sigma) and assayed by a flow cytometer (FACS Calibur, Becton Dickinson). The assay data were analyzed by CELLQuest software (Becton Dickinson), and the geo-mean of FITC fluorescent intensity was calculated for the PI-negative population of viable cells.
(In general: In flow cytometry, cells or beads pass a laser one at a time.)

The target of assay [2] is T3, C-terminal V5 tagged mouse HS6ST2 (mHS6ST2_ctV5), expressed in CHO DG44 cells (mouse, UniProt Q80UW0 148-612).
T3 construct: also called mHS6ST2_ctV5_CHO; mouse HS6ST2 transcript variant 2
T3 sequence: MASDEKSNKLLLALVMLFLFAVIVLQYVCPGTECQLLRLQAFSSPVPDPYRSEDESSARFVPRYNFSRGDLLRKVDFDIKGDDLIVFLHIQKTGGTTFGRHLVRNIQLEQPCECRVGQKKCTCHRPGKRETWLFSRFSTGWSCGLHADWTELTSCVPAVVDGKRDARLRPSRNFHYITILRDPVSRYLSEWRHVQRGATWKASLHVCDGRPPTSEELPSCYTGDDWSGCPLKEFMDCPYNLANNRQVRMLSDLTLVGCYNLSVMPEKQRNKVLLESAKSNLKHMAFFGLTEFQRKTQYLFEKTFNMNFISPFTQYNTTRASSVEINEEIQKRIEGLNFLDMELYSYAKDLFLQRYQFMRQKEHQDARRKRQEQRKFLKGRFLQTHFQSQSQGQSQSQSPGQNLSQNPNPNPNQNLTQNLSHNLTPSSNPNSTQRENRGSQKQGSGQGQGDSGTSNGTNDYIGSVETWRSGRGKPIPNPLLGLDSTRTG
Description: flow cytometry on mHS6ST2_ctV5_CHO cells. As to the method:
as §2, §3

Assay [3] has as its target T4, C-terminal V5 tagged HS6ST2_N-long (HS6ST2_N-long_ctV5), expressed in CHO DG44 cells (human, UniProt Q96MM7 1-605).
T4 construct: On cells in flow cytometry; also called Q96MM7-1
T4 sequence: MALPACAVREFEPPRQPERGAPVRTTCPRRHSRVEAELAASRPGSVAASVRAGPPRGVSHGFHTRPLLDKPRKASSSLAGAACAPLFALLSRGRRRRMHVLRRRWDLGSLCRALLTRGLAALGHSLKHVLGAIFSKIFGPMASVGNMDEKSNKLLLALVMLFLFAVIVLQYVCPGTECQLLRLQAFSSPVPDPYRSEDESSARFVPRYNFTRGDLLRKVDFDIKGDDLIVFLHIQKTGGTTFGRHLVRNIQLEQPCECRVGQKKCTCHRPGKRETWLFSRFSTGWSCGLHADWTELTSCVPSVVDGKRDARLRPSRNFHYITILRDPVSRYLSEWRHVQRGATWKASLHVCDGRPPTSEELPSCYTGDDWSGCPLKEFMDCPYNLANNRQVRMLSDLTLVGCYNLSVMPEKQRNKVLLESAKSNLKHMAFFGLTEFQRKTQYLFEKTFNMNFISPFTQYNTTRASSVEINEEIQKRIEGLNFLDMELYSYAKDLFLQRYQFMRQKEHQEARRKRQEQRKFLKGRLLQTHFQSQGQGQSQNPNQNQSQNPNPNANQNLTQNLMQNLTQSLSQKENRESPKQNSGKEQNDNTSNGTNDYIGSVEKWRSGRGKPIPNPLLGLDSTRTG
Description: flow cytometry on HS6ST2_N-long_ctV5_CHO cells. As to the method:
as §3
Binding activity of the anti-HS6ST2 antibodies prepared in Example 2 to HS6ST2_N-long was evaluated by flow cytometry. The cells used were HS6ST2_N-long_ctV5_CHO cells and HS6ST2_N-short_{—} ctV5_CHO cells as a positive control, and evaluated in the same manner as in Example 3. The primary antibodies were used at a concentration of 10 μg/mL.

For a further assay, the target named is T5, GST_HS6ST2_N (human, UniProt Q96MM7 170-321).
T5 construct: Expressed in E. coli BL21 (DE3); whole cell lysate blotted after SDS-PAGE; also called GST fusion of amino acids 24-175 of HS6ST2_N-short; not shown: N-terminal glutathione S-transferase (GST) of vector pGEX-6P-1, with the vector's linker
T5 sequence: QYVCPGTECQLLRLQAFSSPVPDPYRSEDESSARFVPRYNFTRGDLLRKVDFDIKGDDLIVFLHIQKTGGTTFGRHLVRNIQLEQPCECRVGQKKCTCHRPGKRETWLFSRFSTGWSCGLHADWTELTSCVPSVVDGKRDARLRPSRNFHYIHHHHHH
Description: Western blot of E. coli whole cell lysate, antibody 10 µg/mL. As to the method:
as §1

Assay [4] has as its target T3, C-terminal V5 tagged mouse HS6ST2 …. Description: flow cytometry on mHS6ST2_ctV5_CHO cells, antibody 2 µg/mL. As to the method:
as §2, §3

B1: anti-HS6ST2 antibody B5 (antibody, mouse IgG1, V domains shown)
VH: EVKLVESGGGLVKSGGSLKLSCVVSGFTFSRYAMSWVRQTPEKRLEWVASIVSGDKTYYPDSVKGRFTISRDNARNILYLQMSSLRSEDTAMYYCTRELGYFDVWGAGTTVTVSS
VL: DVVMTQTPLSLPVSLGDQASISCRSSQSLVHSNGNTYLHWYLQKPGQSPKLLIYKVSNRFSGVPDRFSGSGSGTDFTLKISRVEAEDLGVYFCSQSIHVPPLTFGAGTKLELK
notes: also called clone B5; B5-biotin
For the molecule B1, the binding result in the assay with GST_HS6ST2_C2 is recorded as “binds”; in assay [1], “binds”; in assay [2] it was “no binding (tested: 2 µg/mL)”; in assay [3], “binds”.

B2: anti-HS6ST2 antibody A10 (antibody, mouse IgG1, V domains shown)
VH: EVQLQQSGAELVKPGASVKLSCTASGFNIKDTYMHWVKQRPEQGLEWIGRIDPANGNTKFDPKFQGKASITADTSSNTAYLQLSSLTSEDTAVYYCATNLLRAMDYWGQGTSVTVSS
VL: DIVMSQSPSSLTVSVGEKVTMSCKSSQSLLYSSNQKNYLAWCQQIPGQSPKLLIYWASTRESGVPDRFAGSGSGTDFTLTISSVKAEDLAVYYCLQYFTYPFTFGSGTKLEIK
notes: also called clone A10
For B2, the binding result with GST_HS6ST2_C2 was “binds”; in assay [1], “binds”; in assay [2], “no binding (tested: 2 µg/mL)”; in assay [3], “binds”.

B3: anti-HS6ST2 antibody B6 (antibody, mouse IgG1, V domains shown)
VH: EVQLQQSGAELVRSGASVKLSCTASGFNIKDYYMHWVKQRPEQGLEWIGWIDPDNGDTEYAPKFQGKATMTADTSSNTAYLQLSSLTSEDTAVYYCNAGNGNYWFAYWGQGTLVTVSA
VL: DVVMTQTPLSLPVSLGDQASISCRSSQSLVHSNGNTYLHWNLQKPGQSPKLLIYKVSNRFSGVPDRFSGSGSGTDFTLKISRVEAEDLGVYFCSQTTLVPYTFGGGTKLEIK
notes: also called clone B6
Regarding B3, the binding result with GST_HS6ST2_C2 is “binds”; in assay [1], “binds”; in assay [2], “no binding (tested: 2 µg/mL)”; in assay [3], “binds”.

B4: anti-HS6ST2 antibody C10 (antibody, mouse IgG1, V domains shown)
VH: QVQLHQPGSVLVRPGASVKLSCKASGYTFTDSWMHWAKQRPGQGLEWIGEIRPNSGKTNYNEKFKGKATLTVDTSSSTAYVDLRSLTSEDSAVYYCVRTYMSHFDYWGQGTTLTVSS
VL: DIVMTQAAFSNPVTLGTSASISCRSSKSLLHSNGITYLYWYLQKPGQSPQLLIYQMSNLAPGVPDRVSSSGSGSDFTLRISRVEAEDVGVYYCAQNLELPFTFGSGTRLEIK
notes: also called clone C10
In the case of B4, the binding result (in the assay with GST_HS6ST2_N; in assay [1]; in assay [3]; in assay [4]) was “binds” throughout.
